B1: NET1 (parent)
chain: IKRTIRVLDVNNQSFREQEEPSNK
B2: ADD1 (parent)
chain: LRHSFQKQQREKTRWLNSGRGDEA

Variants of: B1
Test: protein stability index of a GFP-peptide fusion (GPS, HEK-293T) (PSI 1-6); higher = more stable
Settings: c terminus: a fixed tail appended
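Further: lentivirally expressed fusions sorted by FACS into six bins by GFP to DsRed ratio, PSI derived from sequencing read proportions per bin multiplied by bin number.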

In order of falling protein stability index:
1. IKRTIRVLDVNNQSFREQEEPSDK  4.51
2. IKRTIRVLDVNNQSFREQEEPSNE  4.37
3. IKRTIRVLDVNNQSFREQEESSNK  4.27
4. IKRTIRVLDVNNQSFREQEEPSNL  4.23
5. IKRTIRVLDVNNQSFREQEEPSNQ  4.2
6. IKRTIRVLDVNNQSFREQEEKSNK  4.15
7. IKRTIRVLDVNNQSFREQEEPSNH  4.11
8. IKRTIRVLDVNNQSFREQEEPSNS  4.07
9. IKRTIRVLDVNNQSFREQEEPSVK  4.04
10. IKRTIRVLDVNNQSFREQEEPMNK  4.02
11. IKRTIRVLDVNNQSFREQEEPSNT  4
12. IKRTIRVLDVNNQSFREQEEPDNK  3.99
13. IKRTIRVLDVNNQSFREQEEPSNN  3.99
14. IKRTIRVLDVNNQSFREQEEDSNK  3.97
15. IKRTIRVLDVNNQSFREQEEPNNK  3.97
16. IKRTIRVLDVNNQSFREQEEPSSK  3.97
17. IKRTIRVLDVNNQSFREQEEPSEK  3.96
18. IKRTIRVLDVNNQSFREQEEPSIK  3.94
19. IKRTIRVLDVNNQSFREQEELSNK  3.93
20. IKRTIRVLDVNNQSFREQEENSNK  3.92
21. IKRTIRVLDVNNQSFREQEEPKNK  3.87
22. IKRTIRVLDVNNQSFREQEEPRNK  3.85
23. IKRTIRVLDVNNQSFREQEEPHNK  3.83
24. IKRTIRVLDVNNQSFREQEEPSNG  3.83
25. IKRTIRVLDVNNQSFREQEEPSNM  3.82
26. IKRTIRVLDVNNQSFREQEEPSCK  3.8
27. IKRTIRVLDVNNQSFREQEEPSND  3.79
28. IKRTIRVLDVNNQSFREQEEYSNK  3.78
29. IKRTIRVLDVNNQSFREQEEHSNK  3.75
30. IKRTIRVLDVNNQSFREQEEPSTK  3.73
31. IKRTIRVLDVNNQSFREQEEPSNV  3.73
32. IKRTIRVLDVNNQSFREQEAPSNK  3.69
33. IKRTIRVLDVNNQSFREQEERSNK  3.68
34. IKRTIRVLDVNNQSFREQEEPSQK  3.65
35. IKRTIRVLDVNNQSFREQEEPPNK  3.64
36. IKRTIRVLDVNNQSFREQEEPSNY  3.61
37. IKRTIRVLDVNNQSFREQEEPCNK  3.59
38. IKRTIRVLDVNNQSFREQESPSNK  3.57
39. IKRTIRVLDVNNQSFREQEETSNK  3.57
40. IKRTIRVLDVNNQSFREQEEPSGK  3.56
41. IKRTIRVLDVNNQSFREQEEPSKK  3.56
42. IKRTIRVLDVNNQSFREQEEPSNP  3.55
43. IKRTIRVLDVNNQSFREQEECSNK  3.54
44. IKRTIRVLDVNNQSFREQENPSNK  3.52
45. IKRTIRVLDVNNQSFREQEEPSNR  3.52
46. IKRTIRVLDVNNQSFREQEEPSNA  3.46
47. IKRTIRVLDVNNQSFREQEEPENK  3.42
48. IKRTIRVLDVNNQSFREQETPSNK  3.41
49. IKRTIRVLDVNNQSFREQEEPSMK  3.41
50. IKRTIRVLDVNNQSFREQEEPSNC  3.4
51. IKRTIRVLDVNNQSFREQEIPSNK  3.37
52. IKRTIRVLDVNNQSFREQEEESNK  3.36
53. IKRTIRVLDVNNQSFREQTEPSNK  3.34
54. IKRTIRVLDVNNQSFREQEEQSNK  3.34
55. IKRTIRVLDVNNQSFREQEEPYNK  3.34
56. IKRTIRVLDVNNQSFREQEPPSNK  3.33
57. IKRTIRVLDVNNQSFREQEEASNK  3.29
58. IKRTIRVLDVNNQSFREQEEPSNI  3.29
59. IKRTIRVLDVNNQSFREQEEPINK  3.28
60. IKRTIRVLDVNNQSFREQECPSNK  3.27
61. IKRTIRVLDVNNQSFREQEDPSNK  3.23
62. IKRTIRVLDVNNQSFREQEEPVNK  3.23
63. IKRTIRVLDVNNQSFREQEEVSNK  3.22
64. IKRTIRVLDVNNQSFREQEGPSNK  3.19
65. IKRTIRVLDVNNQSFREQELPSNK  3.16
66. IKRTIRVLDVNNQSFREQEMPSNK  3.16
67. IKRTIRVLDVNNQSFREQEEPSLK  3.16
68. IKRTIRVLDVNNQSFREQEEPTNK  3.14
69. IKRTIRVLDVNNQSFREQEEWSNK  3.12
70. IKRTIRVLDVNNQSFREQEEMSNK  3.11
71. IKRTIRVLDVNNQSFREQEHPSNK  3.05
72. IKRTIRVLDVNNQSFREQEVPSNK  3.04
73. IKRTIRVLDVNNQSFREQEEPANK  3.04
74. IKRTIRVLDVNNQSFREQEEPSAK  2.99
75. IKRTIRVLDVNNQSFREQEEPSNF  2.98
76. IKRTIRVLDVNNQSFREQEFPSNK  2.97
77. IKRTIRVLDVNNQSFREQEEPSFK  2.96
78. IKRTIRVLDVNNQSFREQERPSNK  2.93
79. IKRTIRVLDVNNQSFREQEKPSNK  2.9
80. IKRTIRVLDVNNQSFREQEEPSPK  2.87
81. IKRTIRVLDVNNQSFREQEQPSNK  2.8
82. IKRTIRVLDVNNQSFREQEEPQNK  2.8
83. IKRTIRVLDVNNQSFREQEYPSNK  2.75
84. IKRTIRVLDVNNQSFREQEEGSNK  2.72
85. IKRTIRVLDVNNQSFREQVEPSNK  2.68
86. IKRTIRVLDVNNQSFREQEEPLNK  2.64
87. IKRTIRVLDVNNQSFREQEEPSNW  2.61
88. IKRTIRVLDVNNQSFREQEEISNK  2.57
89. IKRTIRVLDVNNQSFREQEEPFNK  2.55
90. IKRTIRVLDVNNQSFREQEEPGNK  2.49
91. IKRTIRVLDVNNQSFREQYEPSNK  2.43
92. IKRTIRVLDVNNQSFREQEEFSNK  2.35
93. IKRTIRVLDVNNQSFREQEWPSNK  2.31
94. IKRTIRVLDVNNQSFREQEEPSHK  2.28
95. IKRTIRVLDVNNQSFREQEEPSYK  2.07
96. IKRTIRVLDVNNQSFREQEEPWNK  1.92
97. IKRTIRVLDVNNQSFREQWEPSNK  1.75

Variants of: B2
Test: as above
Settings: c terminus: a fixed tail appended

In order of rising protein stability index:
1. LRHSCQKQQREKTRWLNSGRGDEA  2.21
2. LRHLFQKQQREKTRWLNSGRGDEA  2.26
3. LRWSFQKQQREKTRWLNSGRGDEA  2.28
4. LRCSFQKQQREKTRWLNSGRGDEA  2.31
5. LRHYFQKQQREKTRWLNSGRGDEA  2.45
6. LRHHFQKQQREKTRWLNSGRGDEA  2.74
7. LRHIFQKQQREKTRWLNSGRGDEA  2.82
8. LRHMFQKQQREKTRWLNSGRGDEA  2.84
9. WRHSFQKQQREKTRWLNSGRGDEA  2.92
10. LWHSFQKQQREKTRWLNSGRGDEA  2.92
11. LRHFFQKQQREKTRWLNSGRGDEA  2.92
12. LFHSFQKQQREKTRWLNSGRGDEA  2.99
13. LLHSFQKQQREKTRWLNSGRGDEA  3
14. LRHKFQKQQREKTRWLNSGRGDEA  3
15. LRHCFQKQQREKTRWLNSGRGDEA  3.01
16. LRHWFQKQQREKTRWLNSGRGDEA  3.04
17. LIHSFQKQQREKTRWLNSGRGDEA  3.06
18. LVHSFQKQQREKTRWLNSGRGDEA  3.11
19. LRFSFQKQQREKTRWLNSGRGDEA  3.14
20. LRHVFQKQQREKTRWLNSGRGDEA  3.15
21. LRISFQKQQREKTRWLNSGRGDEA  3.16
22. LRHRFQKQQREKTRWLNSGRGDEA  3.21
23. CRHSFQKQQREKTRWLNSGRGDEA  3.23
24. LYHSFQKQQREKTRWLNSGRGDEA  3.26
25. LRMSFQKQQREKTRWLNSGRGDEA  3.29
26. LRHPFQKQQREKTRWLNSGRGDEA  3.3
27. LRVSFQKQQREKTRWLNSGRGDEA  3.32
28. LRHSRQKQQREKTRWLNSGRGDEA  3.43
29. LRHGFQKQQREKTRWLNSGRGDEA  3.45
30. LRYSFQKQQREKTRWLNSGRGDEA  3.48
31. LRLSFQKQQREKTRWLNSGRGDEA  3.54
32. LRHTFQKQQREKTRWLNSGRGDEA  3.57
33. LCHSFQKQQREKTRWLNSGRGDEA  3.58
34. LRHAFQKQQREKTRWLNSGRGDEA  3.59
35. LSHSFQKQQREKTRWLNSGRGDEA  3.6
36. LRRSFQKQQREKTRWLNSGRGDEA  3.61
37. KRHSFQKQQREKTRWLNSGRGDEA  3.62
38. MRHSFQKQQREKTRWLNSGRGDEA  3.65
39. LRNSFQKQQREKTRWLNSGRGDEA  3.65
40. LRASFQKQQREKTRWLNSGRGDEA  3.67
41. LRQSFQKQQREKTRWLNSGRGDEA  3.67
42. DRHSFQKQQREKTRWLNSGRGDEA  3.7
43. LRHSKQKQQREKTRWLNSGRGDEA  3.7
44. VRHSFQKQQREKTRWLNSGRGDEA  3.71
45. LKHSFQKQQREKTRWLNSGRGDEA  3.71
46. LRHQFQKQQREKTRWLNSGRGDEA  3.72
47. LRHSIQKQQREKTRWLNSGRGDEA  3.74
48. YRHSFQKQQREKTRWLNSGRGDEA  3.75
49. LRKSFQKQQREKTRWLNSGRGDEA  3.75
50. LRPSFQKQQREKTRWLNSGRGDEA  3.77
51. QRHSFQKQQREKTRWLNSGRGDEA  3.78
52. FRHSFQKQQREKTRWLNSGRGDEA  3.8
53. LRHSMQKQQREKTRWLNSGRGDEA  3.8
54. LRHSLQKQQREKTRWLNSGRGDEA  3.83
55. LMHSFQKQQREKTRWLNSGRGDEA  3.85
56. LRHEFQKQQREKTRWLNSGRGDEA  3.86
57. LRHDFQKQQREKTRWLNSGRGDEA  3.88
58. HRHSFQKQQREKTRWLNSGRGDEA  3.92
59. IRHSFQKQQREKTRWLNSGRGDEA  3.92
60. LRGSFQKQQREKTRWLNSGRGDEA  3.93
61. LQHSFQKQQREKTRWLNSGRGDEA  3.94
62. LRTSFQKQQREKTRWLNSGRGDEA  3.94
63. LGHSFQKQQREKTRWLNSGRGDEA  3.97
64. LRESFQKQQREKTRWLNSGRGDEA  3.98
65. LHHSFQKQQREKTRWLNSGRGDEA  4.03
66. LRSSFQKQQREKTRWLNSGRGDEA  4.03
67. LRHNFQKQQREKTRWLNSGRGDEA  4.03
68. PRHSFQKQQREKTRWLNSGRGDEA  4.04
69. LTHSFQKQQREKTRWLNSGRGDEA  4.05
70. NRHSFQKQQREKTRWLNSGRGDEA  4.11
71. LRHSGQKQQREKTRWLNSGRGDEA  4.16
72. LAHSFQKQQREKTRWLNSGRGDEA  4.17
73. LRHSSQKQQREKTRWLNSGRGDEA  4.17
74. LRHSQQKQQREKTRWLNSGRGDEA  4.19
75. GRHSFQKQQREKTRWLNSGRGDEA  4.21
76. LRHSHQKQQREKTRWLNSGRGDEA  4.24
77. LNHSFQKQQREKTRWLNSGRGDEA  4.3
78. TRHSFQKQQREKTRWLNSGRGDEA  4.32
79. LPHSFQKQQREKTRWLNSGRGDEA  4.33
80. ERHSFQKQQREKTRWLNSGRGDEA  4.34
81. SRHSFQKQQREKTRWLNSGRGDEA  4.35
82. LRHSDQKQQREKTRWLNSGRGDEA  4.37
83. LRHSNQKQQREKTRWLNSGRGDEA  4.37
84. LRHSPQKQQREKTRWLNSGRGDEA  4.4
85. RRHSFQKQQREKTRWLNSGRGDEA  4.42
86. LEHSFQKQQREKTRWLNSGRGDEA  4.42
87. LRHSAQKQQREKTRWLNSGRGDEA  4.44
88. LRDSFQKQQREKTRWLNSGRGDEA  4.53
89. ARHSFQKQQREKTRWLNSGRGDEA  4.57
90. LRHSEQKQQREKTRWLNSGRGDEA  4.71
91. LDHSFQKQQREKTRWLNSGRGDEA  5.03
